In the test the target is factor Xa.
Chain of Ser-(Thr88-Thr161)-EPI (chain): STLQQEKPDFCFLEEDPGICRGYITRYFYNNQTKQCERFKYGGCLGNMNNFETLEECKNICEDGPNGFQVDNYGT
Chain of Ser-(Glu15-Thr161)-EPI (chain): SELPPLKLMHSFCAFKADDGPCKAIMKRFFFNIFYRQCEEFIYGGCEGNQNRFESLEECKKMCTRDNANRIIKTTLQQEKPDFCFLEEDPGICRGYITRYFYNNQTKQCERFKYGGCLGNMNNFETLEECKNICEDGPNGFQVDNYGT
Chain of native extrinsic pathway inhibitor (EPI), entire EPI protein expressed from pCMVEPIhGH (chain): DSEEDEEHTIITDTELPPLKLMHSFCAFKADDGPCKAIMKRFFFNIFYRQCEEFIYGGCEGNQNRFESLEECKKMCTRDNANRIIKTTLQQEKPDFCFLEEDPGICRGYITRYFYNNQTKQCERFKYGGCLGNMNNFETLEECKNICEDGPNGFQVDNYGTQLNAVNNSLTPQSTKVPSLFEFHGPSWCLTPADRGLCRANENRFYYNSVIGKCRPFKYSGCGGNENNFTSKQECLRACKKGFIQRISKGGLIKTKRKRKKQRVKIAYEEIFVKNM
Ser-(Glu15-Thr161)-EPI came in with an anti-Xa activity [U/ml], chromogenic assay (FXa, substrate S2222) of 5.6 U/ml.

Turning to Ser-(Thr88-Thr161)-EPI, the anti-Xa activity [U/ml], chromogenic assay (FXa, substrate S2222) was found to be 0.15 U/ml. In the case of “native extrinsic pathway inhibitor (EPI), entire EPI protein expressed from pCMVEPIhGH” it was 7.6 U/ml.

Values taken from patent publication US5312736.
